Source: the supplement of paper PMC11246515
± gives the standard deviation of the averaged measurements.

Assay: total protein half-life in vivo (active degradation + dilution); higher = more stable protein
[1] = E. coli NCM3722 delta-clpP delta-lon delta-hslV, growth: N-lim chemostat, doubling time 6 h
[2] = E. coli NCM3722 delta-clpP, growth: N-lim chemostat, doubling time 6 h
[3] = E. coli NCM3722 delta-hslV, growth: N-lim chemostat, doubling time 6 h
[4] = E. coli NCM3722 delta-lon, growth: N-lim chemostat, doubling time 6 h
[5] = E. coli NCM3722 delta-smpB, growth: N-lim chemostat, doubling time 6 h
[6] = wild type E. coli NCM3722, growth: C-lim chemostat, doubling time 3 h
[7] = wild type E. coli NCM3722, growth: C-lim chemostat, doubling time 6 h
[8] = wild type E. coli NCM3722, growth: C-lim chemostat, doubling time 12 h
[9] = wild type E. coli NCM3722, growth: N-lim chemostat, doubling time 6 h
[10] = wild type E. coli NCM3722, growth: N-lim chemostat, doubling time 12 h
[11] = wild type E. coli NCM3722, growth: P-lim chemostat, doubling time 6 h
[12] = wild type E. coli NCM3722, growth: P-lim chemostat, doubling time 12 h

| Sequence | total protein half-life in vivo [1] | total protein half-life in vivo [2] | total protein half-life in vivo [3] | total protein half-life in vivo [4] | total protein half-life in vivo [5] | total protein half-life in vivo [6] | total protein half-life in vivo [7] | total protein half-life in vivo [8] | total protein half-life in vivo [9] | total protein half-life in vivo [10] | total protein half-life in vivo [11] | total protein half-life in vivo [12] |
| --- | --- | --- | --- | --- | --- | --- | --- | --- | --- | --- | --- | --- |
| MRITIYTRNDCVQCHATKRAMENRGFDFEMINVDRVPEAAEALRAQGFRQLPVVIAGDLSWSGFRPDMINRLHPAPHAASA [P0AC65] | 2.48 ± 0.033 h |  |  |  |  |  |  |  |  |  |  |  |
| MVLGKPQTDPTLEWFLSHCHIHKYPSKSTLIHQGEKAETLYYIVKGSVAVLIKDEEGKEMILSYLNQGDFIGELGLFEEGQERSAWVRAKTACEVAEISYKKFRQLIQVNPDILMRLSAQMARRLQVTSEKVGNLAFLDVTGRIAQTLLNLAKQPDAMTHPDGMQIKITRQEIGQIVGCSRETVGRILKMLEDQNLISAHGKTIVVYGTR [P0ACJ8] | 5.31 ± 0.51 h | 5.17 ± 0.55 h | 4.68 ± 0.23 h | 4.86 ± 0.09 h | 4.55 ± 0.33 h | 2.92 ± 0.22 h | 5.84 ± 0.064 h | 10 ± 0.63 h | 4.582 ± 0.038 h | 7.59 ± 0.18 h | 5.09 ± 0.27 h | 9.72 ± 0.62 h |
| MKLRSVTYALFIAGLAAFSTSSLAAQSLRFGYETSQTDSQHIAAKKFNDLLQERTKGELKLKLFPDSTLGNAQAMISGVRGGTIDMEMSGSNNFAGLSPVMNLLDVPFLFRDTAHAHKTLDGKVGDDLKASLEGKGLKVLAYWENGWRDVTNSRAPVKTPADLKGLKIRTNNSPMNIAAFKVFGANPIPMPFAEVYTGLETRTIDAQEHPINVVWSAKFFEVQKFLSLTHHAYSPLLVVINKAKFDGLSPEFQQALVSSAQEAGNYQRKLVAEDQQKIIDGMKEAGVEVITDLDRKAFSDALGNQVRDMFVKDVPQGADLLKAVDEVQ | 4.65 h |  |  |  |  | 3.23 ± 0.18 h | 6.69 ± 0.32 h | 9.23 ± 0.3 h |  |  |  |  |
| MTHLPHWWQNGVIYQIYPKSFQDTTGSGTGDLRGVIQHLDYLHKLGVDAIWLTPFYVSPQVDNGYDVANYTAIDPTYGTLDDFDELVTQAKSRGIRIILDMVFNHTSTQHAWFREALNKESPYRQFYIWRDGEPETPPNNWRSKFGGSAWRWHAESEQYYLHLFAPEQADLNWENPAVRAELKKVCEFWADRGVDGLRLDVVNLISKDPRFPEDLDGDGRRFYTDGPRAHEFLHEMNRDVFTPRGLMTVGEMSSTSLEHCQRYAALTGSELSMTFNFHHLKVDYPGGEKWTLAKPDFVALKTLFRHWQQGMHNVAWNALFWCNHDQPRIVSRFGDEGEYRVPAAKMLAMVLHGMQGTPYIYQGEEIGMTNPHFTRITDYRDVESLNMFAELRNDGRDADELLAILASKSRDNSRTPMQWSNGDNAGFTAGEPWIGLGDNYQQINVEAALADDSSVFYTYQKLIALRKQEAILTWGNYQDLLPNSPVLWCYRREWKGQTLLVIANLSREIQPWQAGQMRGNWQLVMHNYEEASPQPCAMNLRPFEAVWWLQK |  |  |  |  |  | 2.39 ± 0.28 h | 1.98 ± 0.55 h | 2.82 ± 0.88 h |  |  |  | 5.64 h |
| MNTLRIGLVSISDRASSGVYQDKGIPALEEWLTSALTTPFELETRLIPDEQAIIEQTLCELVDEMSCHLVLTTGGTGPARRDVTPDATLAVADREMPGFGEQMRQISLHFVPTAILSRQVGVIRKQALILNLPGQPKSIKETLEGVKDAEGNVVVHGIFASVPYCIQLLEGPYVETAPEVVAAFRPKSARRDVSE [P0AF03] | 4.79 ± 0.77 h | 4.24 ± 0.53 h | 4.594 ± 0.04 h | 5.05 ± 0.59 h | 4.82 ± 0.54 h | 2.8 ± 0.21 h | 5.83 ± 0.49 h | 9.32 ± 0.82 h | 4.61 ± 0.27 h | 8.09 ± 0.46 h | 5.41 ± 0.4 h | 11.3 ± 0.16 h |
| MGFTTRVKSEASEKKPFNFALFWDKYGTFFILAIIVAIFGSLSPEYFLTTNNITQIFVQSSVTVLIGMGEFFAILVAGIDLSVGAILALSGMVTAKLMLAGVDPFLAAMIGGVLVGGALGAINGCLVNWTGLHPFIITLGTNAIFRGITLVISDANSVYGFSFDFVNFFAASVIGIPVPVIFSLIVALILWFLTTRMRLGRNIYALGGNKNSAFYSGIDVKFHILVVFIISGVCAGLAGVVSTARLGAAEPLAGMGFETYAIASAIIGGTSFFGGKGRIFSVVIGGLIIGTINNGLNILQVQTYYQLVVMGGLIIAAVALDRLISK |  |  | 5.22 h |  |  |  | 5.91 h |  |  |  |  |  |
